These results are taken from article PMC4613514.

The target in the assay is Keap1–mCherry (Kelch-like ECH associated protein 1 fused to mCherry) (UniProt Q9Z2X8). The assay can be described thus: FRET or BRET. Background: BRET reads energy transfer from a luciferase to a nearby fluorophore.
Sequence of UniProt Q9Z2X8 (Q9Z2X8 whole entry, the tested form may be a part): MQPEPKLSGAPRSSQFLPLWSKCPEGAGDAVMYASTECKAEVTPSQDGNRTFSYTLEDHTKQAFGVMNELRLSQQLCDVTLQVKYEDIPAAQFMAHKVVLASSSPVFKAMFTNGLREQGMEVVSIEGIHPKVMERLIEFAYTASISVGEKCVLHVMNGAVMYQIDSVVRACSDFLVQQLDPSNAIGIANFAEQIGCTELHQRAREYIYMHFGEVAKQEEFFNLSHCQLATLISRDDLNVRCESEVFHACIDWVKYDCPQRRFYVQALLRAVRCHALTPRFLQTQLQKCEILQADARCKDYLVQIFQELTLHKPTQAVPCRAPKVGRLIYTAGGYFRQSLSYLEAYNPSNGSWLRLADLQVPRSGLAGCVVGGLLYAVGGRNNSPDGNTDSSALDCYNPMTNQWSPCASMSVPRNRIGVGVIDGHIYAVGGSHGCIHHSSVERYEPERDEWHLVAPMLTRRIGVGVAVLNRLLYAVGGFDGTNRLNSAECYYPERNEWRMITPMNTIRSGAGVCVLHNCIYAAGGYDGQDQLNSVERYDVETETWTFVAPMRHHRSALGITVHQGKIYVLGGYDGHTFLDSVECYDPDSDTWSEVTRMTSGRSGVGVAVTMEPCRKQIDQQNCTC

The substance “EGFP–Nrf2 double ETGE (from UniProt Q60795 1-597) (natural protein)” yielded an E-FRET (major peak) of 21%.

With “EGFP–Nrf2ΔDLG (from UniProt Q60795 1-597) (natural protein)”, the E-FRET (major peak) was determined as 13%.
